Test results as given in the supplement of paper PMC10567573.
± gives the standard deviation.

Test: protein stability index of a GFP-peptide fusion (GPS, HEK-293T) (PSI 1-6); higher = more stable
Details: c terminus: a fixed tail appended
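Note: 24-mer peptide tiles fused after GFP, lentivirally expressed, FACS-sorted into six equal bins by GFP/DsRed ratio, decoded by Illumina sequencing, PSI is the read-weighted mean bin number.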

Row | Sequence | protein stability index (treatment: DMSO) | protein stability index (treatment: MLN4924 1 uM, 8 h)
1 | IQNSDNDLPVVQGSSSFSLKGYPS [TRIM29] | 3.91 ± 0.29 | 4.07 ± 0.2
2 | VISPVIQLQPTFTPMRVALAGTFH [NSDHL] | 2.42 ± 0.54 | 2.1 ± 0.11
3 | QDEEMLELPAPAEVAAKNQSLEGD [MLH1] | 5.37 ± 0.59 | 5.66 ± 0.17
4 | DYFISYGIEHAQCVPPSEFSEPSF [ETS1] | 2.49 ± 0.26 | 2.67 ± 0.18
5 | RQVLCEKCKSTLSPPEASPGPPAA [PWWP2B] | 4.88 ± 0.14 | 4.83 ± 0.37
6 | TADHRIYSYVVSRPQPRGLLGWGY [FAF2] | 2.16 ± 0.37 | 2.21 ± 0.22
7 | TSTKTDSEEGSWAQTLAYGDMNHE [PPFIA4] | – | 4.66 ± 0.54
8 | EIKLVSDVTADSKVLEALKLKGAE [PLD5] | 4.31 ± 0.41 | 4.34 ± 0.51
9 | GIFQAMCLLICAEMYQVSRLQHIC [RHOBTB3] | 2.99 ± 0.59 | 3.09 ± 0.34
10 | PDAIRSRSNTLRERSQVRGSAPPR [PCDHGC5] | 5 ± 0.33 | 4.84 ± 0.23
11 | QHQNKSPPKVKAEDGMQCLQLKET [DLC1] | 5.17 ± 0.47 | 5.2 ± 0.11
12 | KNIVIADFVMSLTFPFKILGDSGL [P2RY14] | 3.04 ± 0.65 | 2.99 ± 0.38
13 | ANWQPKVAPATWSAGVPPSAPLQG [SNAP91] | 4 ± 0.098 | 3.85 ± 0.25
14 | YVKAKKSIDKDEEFAGSSPQSSKS [FAN1] | 3.57 ± 0.67 | 4.16 ± 0.65
15 | SVDIVSSHWDLNHTHPSACQGQRL [PLD5] | 3.64 ± 0.16 | 3.82 ± 0.086
16 | RMGSSESTDSGFCLDSPGPLDSKE [CDC25A] | 5.45 ± 0.14 | 5.47 ± 0.44
17 | NQKSDIWALGCVLYELASLKRAFE [NEK8] | 2.38 ± 0.72 | 2.41 ± 0.34
18 | QSLDEPGGATFLLTAKQLIKSIVE [TRIM63] | 2.6 ± 0.33 | 2.32 ± 0.37
19 | DHPIVETLRQKAEADKNDKAVKDL [HSP90AB1] | 5.58 ± 0.29 | 5.64 ± 0.14
20 | KSNVLKLKTADWRVFLFQAPSKEE [PSD2] | 2.33 ± 0.077 | 2.44 ± 0.28
21 | SCLLPSSEAKLYGRCELARVLHDF [SPACA3] | 2.08 ± 0.57 | 2.1 ± 0.26
22 | AGGSSGTTARERPCVRPGVSGSPV [FBF1] | 4.58 ± 0.16 | 4.47 ± 0.32
23 | EDQTEYLEERRVKEVVKKHSQFIG [HSP90AB1] | 4.11 ± 0.16 | 4.93 ± 0.17

Row | Sequence | protein stability index (treatment: DMSO) | protein stability index (treatment: MLN4924 1 uM, 8 h)
24 | AGQKRKHSEGRVEVYYDGQWGTVC [LOXL2] | 2.87 ± 1.3 | 3.35 ± 1
25 | LEPAQRPPLSHIMAQPLCIRALLN [NEK8] | 3.35 ± 0.21 | 3.48 ± 0.16
26 | MATFPCQLCGKTFLTLEKFTIHNY [PLAGL1] | 2.47 ± 0.23 | 2.4 ± 0.28
27 | VSVNLEAFSQAISAIQALRSSVSR [MED27] | 3.17 ± 0.15 | 3.24 ± 0.28
28 | SQKLNFREHAKARVDHGAEIITQS [MAP2] | 3.98 ± 0.28 | 4.34 ± 0.38
29 | WKIALLFVAFALCMFCLYSFMPLV [SLC35F2] | 2.19 ± 0.51 | 2.69 ± 0.46
30 | GLGNIWRFPYLCQKNGGGAYLVPY [SLC6A17] | 2.44 ± 0.43 | 2.54 ± 0.49
31 | LGIGMDSCVIPLRHGGLSLVQTTD [SEPHS2] | 2.8 ± 0.33 | 2.98 ± 0.4
32 | AKVPRPPSTLLPTPEEQGELEPLK [FOXJ1] | 5.19 ± 0.23 | 5.3 ± 0.18
33 | RLHHPHKSVQHVVLQALFYLLDRA [PTPN9] | 2.28 ± 0.21 | 2.13 ± 0.36
34 | NETGYLSSVECYNLETNEWRYVSS [KLHL14] | 2.61 ± 0.32 | 2.91 ± 0.57
35 | DDSKFPIEDTPLVPVSFIFIFTFV [PCDHGA10] | 3.32 ± 0.36 | 2.09 ± 0.062
36 | GMEGDWSWVDDTPFNKVQSARFWI [CD207] | 1.82 ± 0.3 | 2.25 ± 0.32
37 | EQLSGAGYRVSAALEEADKMFLRT [EID1] | 3.72 ± 0.22 | 4.1 ± 0.43
38 | KACNKAVAGEFSEPVTLETPAFMF [FSD1] | 2.84 ± 0.18 | 2.98 ± 0.33
39 | VLSDINLKKGESECQYYIDKLEYL [NET1] | 2.72 ± 0.18 | 2.94 ± 0.33
40 | TSAAALSPMSAATLGGLNPSPSEV [SMTNL2] | 4.61 ± 0.21 | 4.62 ± 0.31
41 | DNEYAYLKAIIFFDPDAKGLSDPG [HNF4A] | 1.92 ± 0.19 | 2.14 ± 0.092
42 | DYFPSEDFYRCGYCKNESGSRSNG [ATE1] | 3.07 ± 0.32 | 3.35 ± 0.49
43 | LIKKKKEELEAKRLQCPFEQELLR [FAM107A] | 3.66 ± 0.12 | 3.71 ± 0.15
44 | VPFVRVKREREVDEDSEPEREVRA [USP39] | 5.15 ± 0.26 | 5.17 ± 0.14
45 | LKAIIFFDPDAKGLSDPGKIKRLR [HNF4A] | 2.45 ± 0.33 | 2.37 ± 0.12
46 | STQMFQTKRCFRLAPTFSNLLLQP [SMG5] | 2.16 ± 0.4 | 2.12 ± 0.2

Row | Sequence | protein stability index (treatment: DMSO) | protein stability index (treatment: MLN4924 1 uM, 8 h)
47 | LREERKKAKKNKDKYVGVSSDSVG [CLINT1] | 4.95 ± 0.17 | 5.09 ± 0.15
48 | YQETISDVLNDAIFDEDHDEMVIV [GCH1] | 3.98 ± 0.09 | 4.02 ± 0.25
49 | IRVMVHGRNHTPFLGHHSFSVRPG [SCNN1D] | 2.55 ± 0.24 | 2.85 ± 0.88
50 | RRKACQACRFTKCLRVGMLKEGVR [ESRRA] | 2.23 ± 0.25 | 2.3 ± 0.51
51 | PLIKATVGLIRNLALCPANHAPLR [CTNNB1] | 2.39 ± 0.47 | 2.55 ± 0.43
52 | LGSDYEQPLEVKNNSNLQRMGSSE [CDC25A] | 5.01 ± 0.19 | 4.94 ± 0.57
53 | IHQETVSKNGNGLKNTPRFKRRRV [PCMTD2] | 4.41 ± 0.27 | 4.63 ± 0.27
54 | AELQAELLHSQARLAELEAQVRKL [FBF1] | 4.29 ± 0.21 | 4.26 ± 0.092
55 | SLVHMDIKPSNIFISRTSIPNAAS [WEE1] | 2.43 ± 0.24 | 2.48 ± 0.21
56 | AAAATVLLRTARVRRECWFLPTAL [SLC19A2] | 2.51 ± 0.54 | 2.28 ± 0.42
57 | GTMGMAPLGNTPMMNQSMMGMNMN [CLINT1] | 3.39 ± 0.45 | 3.52 ± 0.21
58 | LHGKAIKVEQAKKPSFQSGGRRRP [RBMY1A1] | 3.89 ± 0.2 | 4.21 ± 0.16
59 | VPLGFHYETKYVVLSYLGLLSQEK [BCL2L13] | 3.25 ± 0.93 | 2.4 ± 0.91
60 | FKAHKSVLAARSPVFNAMFEHEME [SPOPL] | 3.17 ± 0.41 | 3.17 ± 0.32
61 | RVQPVKDTAHDFRAKCRNMEHALR [TRIM35] | 2.96 ± 0.44 | 3.25 ± 0.36
62 | AKLAINQGMEVDLVTGLAIEEACY [AUH] | 2.07 ± 0.21 | 2.32 ± 0.44
63 | LDELLGRGMATKLLARPGTGEHRE [FBF1] | 3.75 ± 0.17 | 4.09 ± 0.29
64 | TNFVVQVSVFIGVLIDLWKITKVM [CLPTM1] | 3.1 ± 0.67 | 3.39 ± 0.72
65 | REQILRVKDTDDVPMILVGNKCDL [RAP1B] | 3.95 ± 0.28 | 3.98 ± 0.14
66 | LALRQGVEADINGLRRVLDELTLA [KRT15] | 2.51 ± 0.26 | 2.65 ± 0.4
67 | QLCDVSIRVQGREFRAHRAVLAAS [ZBTB22] | 2.58 ± 0.35 | 2.77 ± 0.3
68 | NGSSEKREVRQFQFTAWPDHGVPE [PTPRD] | 4.41 ± 0.14 | 4.43 ± 0.19
69 | FHYLVFDLVTGGELFEDIVAREYY [CAMK2B] | 3.21 ± 0.4 | 3.05 ± 1

Row | Sequence | protein stability index (treatment: DMSO) | protein stability index (treatment: MLN4924 1 uM, 8 h)
70 | LKEGMLMKIKQDRASRTYELQNQL [FSD1] | 3.05 ± 0.35 | 3.39 ± 0.19
71 | ALAREFSCPFFETSAAYRYYIDDV [RIT1] | 2.29 ± 0.13 | 2.08 ± 0.12
72 | GGGVATSPMLIVFHGKYSTINPLW [GLT8D2] | 3.02 ± 1.3 | 2.36 ± 0.56
73 | SNSCQDSTDTESNNEEQRSGLIYL [IKZF1] | 4.67 ± 0.27 | 4.735 ± 0.023
74 | SHQYDRIYCGAGVQKDHENYMKIL [PCMTD1] | 2.38 ± 0.16 | 2.39 ± 0.2
75 | RYDPEPKSKWDEEWDKNKSAFPFS [CLINT1] | 3.84 ± 0.36 | 3.89 ± 0.21
76 | SFIITLGCNSVLIQFATPNDFCSF [CARM1] | 3.3 ± 0.25 | 2.75 ± 0.45
77 | PPRQALGSLCSPWAAPRVGPLPPA [YPEL3] | 3.16 ± 0.51 | 3.2 ± 0.44
78 | EVREPALRPAKRELRGAEPGRPAR [SPSB4] | 4.48 ± 0.39 | 4.9 ± 0.22
79 | PCSFVCWYRPMYKAFRSDSSFNFF [SCAMP3] | 2.86 ± 0.77 | 2.6 ± 0.5
80 | SHQCAHCEKTFNRKDHLKNHLQTH [PLAGL1] | 5.03 ± 0.15 | 5.04 ± 0.14
81 | ALSPAGVCGGAQRPGHLPGLLLGS [CDC25B] | 2.51 ± 0.22 | 2.93 ± 0.46
82 | DHPGIHEPLEPEVKYVGNMHGNEA [CPN1] | 4.98 ± 0.56 | 5.08 ± 0.19
83 | YFYHRETENEEQTQLTQNAVSCPY [KCNA4] | 3.88 ± 0.34 | 3.96 ± 0.17
84 | VNNDKSISVQELMGCLGVAKEDGK [SMOC2] | 4.47 ± 0.13 | 4.62 ± 0.19
85 | TSDLGTTDVQKKKLVDAIVSGDTS [RIPK4] | 4.97 ± 0.21 | 5.09 ± 0.12
86 | HMEALEIAANLENKATNTDHLTTV [C8orf76] | 4.76 ± 0.18 | 4.78 ± 0.23
87 | VLSLACAGGHLAVVELLLAHGADP [ANKRD17] | 2.3 ± 0.66 | 2.44 ± 0.95
88 | EEALRKNTEEQLEIALAPYQHLEE [MTUS2] | 5.27 ± 0.18 | 5.22 ± 0.23
89 | WIEQLNECKQLSESQVKSLCEKAK [PPP2CA] | 3.85 ± 0.18 | 3.87 ± 0.1
90 | FGCEECGKKYNTMLGYKRHLALHA [PLAGL1] | 3.94 ± 0.12 | 3.97 ± 0.27
